Values of other authors as cited in article PMC5751705.

Experiments:
[1] = target: substance P (Homo sapiens) (UniProt P20366)
[2] = target: YopB (Yersinia pestis) (UniProt Q06114)
Sequence of YopB (Yersinia pestis) (Q06114 whole entry): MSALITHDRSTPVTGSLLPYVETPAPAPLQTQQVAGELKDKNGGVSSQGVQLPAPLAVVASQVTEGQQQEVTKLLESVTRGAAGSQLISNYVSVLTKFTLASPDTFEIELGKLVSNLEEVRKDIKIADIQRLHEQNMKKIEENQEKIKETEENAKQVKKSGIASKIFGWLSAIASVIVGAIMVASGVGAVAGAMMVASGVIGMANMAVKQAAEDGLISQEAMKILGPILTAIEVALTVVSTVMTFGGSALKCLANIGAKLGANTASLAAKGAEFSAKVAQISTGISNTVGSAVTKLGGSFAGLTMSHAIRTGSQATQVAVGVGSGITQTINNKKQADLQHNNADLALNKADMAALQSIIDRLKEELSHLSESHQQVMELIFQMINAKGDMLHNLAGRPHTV

Sequence of substance P (Homo sapiens) (P20366 whole entry, looked up): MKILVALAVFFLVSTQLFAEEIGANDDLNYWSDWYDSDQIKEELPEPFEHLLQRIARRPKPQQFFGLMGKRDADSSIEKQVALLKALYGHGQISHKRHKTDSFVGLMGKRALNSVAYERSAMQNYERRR
Sequence of LcrV (P0C7U7 whole entry): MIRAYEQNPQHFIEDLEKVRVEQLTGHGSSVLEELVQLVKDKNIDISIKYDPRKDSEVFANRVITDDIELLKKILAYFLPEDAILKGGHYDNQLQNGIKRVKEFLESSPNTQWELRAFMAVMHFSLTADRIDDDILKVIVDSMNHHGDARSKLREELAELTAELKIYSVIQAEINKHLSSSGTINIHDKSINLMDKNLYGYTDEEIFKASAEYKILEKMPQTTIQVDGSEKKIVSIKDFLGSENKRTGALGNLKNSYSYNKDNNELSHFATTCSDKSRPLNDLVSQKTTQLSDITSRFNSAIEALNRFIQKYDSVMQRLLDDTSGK
Sequence of NK1R (P25103 whole entry): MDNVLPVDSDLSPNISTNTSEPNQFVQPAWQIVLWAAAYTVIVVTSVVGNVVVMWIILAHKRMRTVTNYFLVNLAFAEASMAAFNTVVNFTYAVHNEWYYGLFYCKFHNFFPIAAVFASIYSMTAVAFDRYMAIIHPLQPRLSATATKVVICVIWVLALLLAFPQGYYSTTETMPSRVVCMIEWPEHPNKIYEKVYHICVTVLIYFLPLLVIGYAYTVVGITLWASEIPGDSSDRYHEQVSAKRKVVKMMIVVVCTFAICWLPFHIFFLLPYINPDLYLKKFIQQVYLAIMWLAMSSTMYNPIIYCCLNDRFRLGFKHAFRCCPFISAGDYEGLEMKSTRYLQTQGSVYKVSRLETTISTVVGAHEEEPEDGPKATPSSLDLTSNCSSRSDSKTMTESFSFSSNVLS

Question: For NK1R (from UniProt P25103), which Kd [1] is on record?
Answer: Its Kd is 83 nM.

Question: For LcrV (from UniProt P0C7U7), which Kd [2] is on record?
Answer: Its Kd is 20.5 nM.
